Assay: yeast display, Sf9 membrane polyspecificity reagent, FACS + sequencing; frameworks hold sequencing errors
Summary of the method: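 Synthetic nanobody libraries on Saccharomyces cerevisiae BJ5465 were galactose-induced for 36–48 hours, stained 1 hour at 4 °C with 10% biotinylated, detergent-solubilized Sf9 membrane reagent and enriched on streptavidin microbeads. FACS then separated cells into low and high (top ~1%) gates by anti-HA (expression) and streptavidin (reagent binding) fluorescence. Genes were colony-PCR amplified, MiSeq 2 × 250 sequenced and CDR-length filtered. A clone's polyreactivity label is that of its gate of origin.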

| Sequence | polyreactivity (PSR sort gate) |
| --- | --- |
| QVQLVESGGGLVQAGGSLRLSCAASGFTFEKYVMGWYRQAPGKEREFVAAITRSGGRTYYADSVKGRFTISRDNAKNTVYLQMNSLKPEDSAVYYCAAAFSRSDTGGGSWGQGTEVTVSS | high polyreactivity |
| QVQLVESGGGLVQAGGSLRLSCAASGSIFSRYAMGWYRQAPGKERELVAAISRGGSTNYADSVKGRFTISRDNAMNTVYLQMNSLKPEDTAVYYCAADGGKNPVRYDYWGQGTQVTVSS | high polyreactivity |
| QVQLVESGGGLVQAGGSLRLSCAASGRIFYDNAMGWYRQAPGKERELVAAIRIGGSTNYADSVKGRFTISRDNAKNTVYLQMNSLKPEDTAVYYCNGSDNPDSYYPDSVWGDSWGQGSQVTVSS | low polyreactivity |
| QVQLVESGGGLVQAGGSLRLSCAASGRTFKYYTMGWYRQAPGKERELVAGINGGGGSTYYADSVKGRFTISRDNAKNTVYLQMNSMKPEDTAVYYCAVDPFAYFSYWTYDYWGQGTQVTVSS | high polyreactivity |
| QVQLVDSGGGLVQAGGSLRLSCAASGFKFGTYAMGWYRQAPGKERELVAGISRRSGSTIYADSVKGRFTISRDNAKNTVYLQMNSLKPEDTAVYYCNVDRPDATWSWWEYGYWGQGTQVTVSS | high polyreactivity |
| QVQLVESGGGLVQAGGSLRLSCAASGYIFTVYAMGWYRQAPGKERELVAAINWSDGSTYYADSVKGRFTISRDNAKNTVYLQMNSLKPEDTAVYYCATEYWYGIYGYDYWGQGTQVSVSS | high polyreactivity |
| QVQLVESGGGLVQAGGSLRLSCAASGSIFWGYAMGWYRQAPGKERELVATITYGGDSTYYADSVKGRFTISRDNANNTVFLQMNSLKTEDTAVYYCNVGVEPYDYDYWGQCTQVTVSS | low polyreactivity |
| QVQLVESGGGLVQAGGSLRLSCAASGSIFYLYTMGWYRQAPGKERELVASITYSGGTYYADSVKGRFTISRDNAKNTVYLQMNSLKPEDTAVYYCNAHIPTNRSYVPEVRGEYDYWGQGTQVTVSS | low polyreactivity |
| QVQLVESGGGLVQAGGSLRISSAAYGRIIYGYAMGWYRQAPGKERELVAAITWRGTSTYYADSVKGRFTISRDNAKNTVYLQMNCLKPEDTAVYYCNAVRSLAYWGQGTQVTVSS | high polyreactivity |
| QVQLVESGGGLVQAGGSLRFSCAASGRISPSYAMGWNRKAPGKERELVAAIYRGGSTSYADSVKGRFTISRDNAKNNVYLQMNSLKPEDTAVYYCATRGPRYRYYYWGQGTQVTVSS | high polyreactivity |
| QVQLVESGGGLVQAGGSLRLSCAASGFTIRSYVMGWYRQAPGKEREFVAAISYRGGGTNYADSVKGRFTISRDNAKNTVYLQMNSLKPEDTAVYYCNALVYDQYGYYHYYLRNGGYYWGQGTQVTVSS | high polyreactivity |
| QVQLVESGGGLVQAGGSLRLSCAASGRTFSAYAMGWYRQAPGKERELVARITSVDSTNYADSVKGRFTISRDNAKNTVYLLMNSLKPEDTAVYYCNATFGYPFVDYDDYWGQGTQVTVSS | low polyreactivity |
| QVQLVESGGGLVKAGGSLRLSCDASGLTFNANPMGWYRQEPGKESELVAAIDWIGVSTYYADSVKGRFTISRDNAKNTVYLQMNSLKPEDTAVYYCAAEYDYNFGGNDLWYYYWGQGTQVTVSS | high polyreactivity |
| QVQLVESGGGLVQAGGSLRLSCAASGLTFWLNAMGWYRQAPGKERELVAAIRYSGGGTYADSVKGRFTISRDNAKNTVYLQMNSLKPEDPAVYYCAALYNLGYPQFDYWGQGTQVTVSS | low polyreactivity |
| QVQLVESGGGLVQAGGSLRLSCAASGITFQNYAMGWYRQAPGKERELVAGISYSGGSTYYADSVKGRFTISRDHAKNTVFLLMNSLKPEDTAVYDCAATRWYSYRRYYYWGQGTQVTVSS | high polyreactivity |
| QVQLVQSGGGLVQAGGSLRLSCAASGITFWGNAMGSYRQAPGKEREFIARINWSGGRTYYAESVKGRFTISRDNEKNNVYLQMNSLKPEDTAVYYCAATSLIYGYRTYDYWGQGTQVTVSS | high polyreactivity |
| QVQLVESGGGIVQAGGSLRLSCAASGSIFGSYAMGWYRQAPGKERELVAAITRSGGRTYYADSVKGRFTISRDNAKNTVYLQMNSLKPEDTAVYYCNAKLKLPSGGDYWGQGTQVTVSS | high polyreactivity |
| QVQLVESGGGLVQAGGSLRLSCAASGRILVYYAMGWYRQAPGKEREFVAAISQRGGSTYYADSVKGRFTISRDNAKNTVYLQMNSLKPEDTAVYYCATRPIQYRRGYDYWGQGTQVTVSS | high polyreactivity |
| QVQLVESGGGLVQAGGSLRLSCAASGSTFTGNAMGWYRQAPGKERELVASIRSGATTYYADSVKGRFTISRDNAKNTVYLQMNSLKPEDTAVYYCAKRYLGRRGDVYYWGQGTQVTVSS | high polyreactivity |
| QVQLVESGGRLVQAGGSLRLSCAASGRIFAFYAMGWYRQAPGKERELVAAITSGGSTKYADSVKGRFTISRDNAKNTVYLQMNSLKPEDTAVYYCAAVESGYGSKRFYYWGQGTQVTVSS | high polyreactivity |
| QVQLVESGGGLVQAGGSLRLSCAASGSTLNVNAMGWYRQAPGKERELVAAITSGGSTYYADSVKGRFTISRDNEKNTVYLQIHSLKPEDTAVYYCNKRRSWRPTYPIGGSGFYYWGQGTQVTVSS | low polyreactivity |
| QVKLVESGGGLVQAGGSLRLSFAAYGSIFAWYGMGWYRQAPGKERELVAAISTAGSTNYADSVKGRFTISRDNAKNTVYLQMNSLKPEDTAVYYCAKKSSWYYQERFDYWGQGTQVTASS | low polyreactivity |

| Sequence | polyreactivity (PSR sort gate) |
| --- | --- |
| QVQLVESGGGLVQAGGSLRLSCAASGRIFQYNAMGWYRQAPGKDRELVAAIRRGGGSTYYADSVKGRFTISRDNAKNTVYLQMNSLKPEDTAVYYCAARRKRVSFYPEYDYWGQGTQVTVSS | low polyreactivity |
| QVQLVESGGGLVQAGGSLRLICAASGRIFHVNAMGWYRQAPGKERELVAAISTSGGRTYYADSVKGRFTISRDNAKNTVYLQMNSLKPEDTAVYYCAAVSRAPGLRYDYWGQGTQVTVSS | high polyreactivity |
| QVQLEESGGGLVQAGGSLRLSCAASGFIFVANAMGWYIQAPWKERELVAAISRRGGSTYYADSVKGRFTISRDNAKNTVYLQMNSLKPEDTAVYYCNAYRRGLSGYGYWGQGTQVTVSS | high polyreactivity |
| QDQLVESGGGLVQAGGSLRLSCAASGSIFWSNAMGWYRQAPGKERELVASISSSGSTYYADSVKGRFTISRDNAKNTVYLQMNSLKPEDTGVYYCAAGSAYYSQRYFAYGYDSWGQGTQVTVSS | low polyreactivity |
| QVQLVESGGGLVQAGGSLRLSCAASGRLFPYYDMGWYRQAPGKERELVAAITGNGGSTYYADSVKGRFTISRDNAKNTVYLQMNSLKPEDTAVYYCAVDPYYYGEDYWGQGTQVTVSS | low polyreactivity |
| QVQLVESGGGLVQAGGSLRLSSAASGRIFSDNVMGWYRQAPGKERELVATITSTGGTYYADSVKGRFTISRDNAKNTVYLQMNSLKPEDTAVYYCNKATLADWWLYPRYNYWGQGTQVTVSS | low polyreactivity |
| QFQLVESGGGLVQAGGSLRLSCAASGRIFYYNAMGWYRQAPGKERELVASITGSGGSTYYADSVKGRFTISRDNAKNTVYLQMNSLKPEDTAVYYCAKREYLYPYYYVAKYDYWGQGTQVTVSS | low polyreactivity |
| QVQLVESGGGLVQAGGILRLSCAASGGTFTYNAMGWYRQAPGKERELVAAITNGGGSTYYADSVKGRFTISRDNAKNTVYLQMNSLKPEDTAVYYCAARWWYYYTEYDYWGQGTQVTVSS | low polyreactivity |
| QVQLVESGGGLVQAGGSLRLSCAASGSIFDIYAMAWYRQAPGKERELVARIRGSGGRTYYADSVKGRFTISRDNAKNTVYLQMNSLKPEDTAVYYCNAGVRAVNRKYDYWGQGTQVTVSS | high polyreactivity |
| QVQLVESGGGLVQAGGSLRLSCAASGYIFGVYAMGWYRQAPGKERELVAVITVTGGSTYYADSVKGRFTISRDNAKNTVYLQMNSLKPEDTAVYYCNTLEYLEYDYWGQGTQVTVSS | high polyreactivity |
| QVQLVESGGGLDQAGGSLRLSCAASGLTFRPYAMGGYRQAPWKERELDAGISGGGGRTYYADSVKGRFTISRDNAKNTVYFQMNSLKPEDTAVYYCATPSAYRYPYYYDYEYWGQGTQVTVSS | low polyreactivity |
| QVQLVESVGGLVQAGGSLRLSCAASGFTFHDYAMGWYRQAPGKERELVAAIYFSGGRTYYADSVKGRFTISRDNAKNTVYLQMNSLKPEDNAVYYCNVPYYSFRELSSYYWGQGTQVTVSS | high polyreactivity |
| QVQLVESGGGLVQAGGSLRLICAASGSIFDWNAMGWYRQAPGKERELVATISWDGGSTYYADSVKGRFTISRDNAKNTVYLQMNSLKPEDTAVYYCATVFTGKPAYYARTKYDYWGQGTQVNVSS | low polyreactivity |
| QVQLVESAGGLVQAGGSLRLSCAASGRIFSHYAMGWYRQAPGKERELVAAITSSGGSTSYADSVKGRFTISRDNAKNTVYLQMNSLKPEDTAVYYCAAEDTQVRRSPVRPLEDYWGQGTQVTVSS | low polyreactivity |
| QVQLVESGGGLVQAGGSLRLSCAASGFTSYRYAMGWYRQAPGKERELVAAISSSGRTDYADSVKGRFTISRDNAKNSVYLQMNSLKPEDTAVYYCAARTYSYVGRYKFDYWGQGTQVTVSS | high polyreactivity |
| QVQLVESGGGLVQAGGSLRLSCAASGSIAKINAMGWYRQAPGKERELVAAINTGDSTYYADSVKGRFTISRDNAKNTVYLQMNSLKPEDTAVYYCAAEGSPNGYDYWGQGTQVTVSS | low polyreactivity |
| QVQLVESGGGLVQAGGSLRLSCAASGRIFTKYAMGWYRQAPGKERELVAAISQIGGSTYYADSVKGRFTISRDKAKNTVYLQMNSLKPEDTAVYYCAARWREASYRYENWGQGTQVTVSS | high polyreactivity |
| QVQLVESGGGLVQTGGSLRLSCAASGSTYYYYAMGWSRPAPGKERELVAGISWGGGSTYFADSVKGRFTISRDNAMNSVYLQMNSLKPEDTAVYYCNALNPKSYDYWGQGTQVTVSS | low polyreactivity |
| QVQLVESGGGLVQAGGSLRLSCAASGYTIYVNAMGRYRQAPAKQRQLVASNRRDSTYYADSVKGRFTISRDNAKNTVYLQMNSLKPEDSAVYYCAVDWYPWLYDGRTYEYWGQGTQVTVSS | low polyreactivity |
| QVQLVETGGGLVQAGGSLRLSCAASGSTFYRYAMGWYRQAPGKERELVAAITRSGGGTHYADSVKGRFTISRDNAKNTVYLQMNSLKPEDTAVYYCAKRQSGYRYDYWGQGTQVTVSS | low polyreactivity |
| QVQLVESGGGLVQAGGSLRLSCAASGSIFYSYAMGWYIQAPGKERELVAVISSGGRTNYADSVKGRFTISRDNAKNTVYLQMNSLKPEDTAVYYCAARNYLYRYARAYDYWGQGTQVTVSS | high polyreactivity |

Source: the nanobody polyreactivity screen of Harvey et al. (2022)
